# Results from article PMC11417362, “Template-independent synthesis and 3′-end labelling of 2′-modified oligonucleotides with terminal deoxynucleotidyl transferases” (Nucleic Acids Research, 2024).
# Legend:
# [1] = substrate: CO[C@@H]1[C@H](O)[C@@H](COP(=O)(O)OP(=O)(O)OP(=O)(O)O)O[C@H]1n1cnc2c(=O)[nH]c(N)nc21; experiment: steady-state primer extension, denaturing PAGE, Michaelis-Menten fit; format: biochemical, Mus musculus; conditions: 100 nM ssDNA primer FAM-18G, 10 mM Mg(OAc)2, 1x TdT buffer (100 mM KCl, 30 mM Tris-acetate, 0.05% Triton X-100), pH 7.5, 37°C
# Description: (§1) steady-state primer extension, denaturing PAGE, Michaelis-Menten fit on murine TdT
# [2] = substrate: Cc1cn([C@H]2C[C@H](O)[C@@H](COP(=O)(O)OP(=O)(O)OP(=O)(O)O)O2)c(=O)[nH]c1=O; experiment: as above; format: biochemical, Mus musculus; conditions: 100 nM ssDNA primer FAM-18G, 10 mM Mg(OAc)2, 1x TdT buffer (100 mM KCl, 30 mM Tris-acetate, 0.05% Triton X-100), pH 7.5, 37°C
# Description: as §1
# [3] = substrate: Nc1ccn([C@@H]2O[C@H](COP(=O)(O)OP(=O)(O)OP(=O)(O)O)[C@@H](O)[C@@H]2F)c(=O)n1; experiment: as above; format: biochemical, Mus musculus; conditions: 100 nM ssDNA primer FAM-18G, 10 mM Mg(OAc)2, 1x TdT buffer (100 mM KCl, 30 mM Tris-acetate, 0.05% Triton X-100), pH 7.5, 37°C
# Description: as §1
# [4] = substrate: Nc1ccn([C@H]2C[C@H](O)[C@@H](COP(=O)(O)OP(=O)(O)OP(=O)(O)O)O2)c(=O)n1; experiment: as above; format: biochemical, Mus musculus; conditions: 100 nM ssDNA primer FAM-18G, 10 mM Mg(OAc)2, 1x TdT buffer (100 mM KCl, 30 mM Tris-acetate, 0.05% Triton X-100), pH 7.5, 37°C
# Description: as §1
# [5] = substrate: Nc1nc2c(ncn2[C@@H]2O[C@H](COP(=O)(O)OP(=O)(O)OP(=O)(O)O)[C@@H](O)[C@@H]2F)c(=O)[nH]1; experiment: as above; format: biochemical, Mus musculus; conditions: 100 nM ssDNA primer FAM-18G, 10 mM Mg(OAc)2, 1x TdT buffer (100 mM KCl, 30 mM Tris-acetate, 0.05% Triton X-100), pH 7.5, 37°C
# Description: as §1
# [6] = substrate: Nc1nc2c(ncn2[C@@H]2O[C@H](COP(=O)(O)OP(=O)(O)OP(=O)(O)O)[C@@H](O)[C@H]2F)c(=O)[nH]1; experiment: as above; format: biochemical, Mus musculus; conditions: 100 nM ssDNA primer FAM-18G, 10 mM Mg(OAc)2, 1x TdT buffer (100 mM KCl, 30 mM Tris-acetate, 0.05% Triton X-100), pH 7.5, 37°C
# Description: as §1
# [7] = substrate: Nc1ncnc2c1ncn2[C@H]1C[C@H](O)[C@@H](COP(=O)(O)OP(=O)(O)OP(=O)(O)O)O1; experiment: as above; format: biochemical, Mus musculus; conditions: 100 nM ssDNA primer FAM-18G, 10 mM Mg(OAc)2, 1x TdT buffer (100 mM KCl, 30 mM Tris-acetate, 0.05% Triton X-100), pH 7.5, 37°C
# Description: as §1
# [8] = substrate: O=c1ccn([C@@H]2O[C@H](COP(=O)(O)OP(=O)(O)OP(=O)(O)O)[C@@H](O)[C@H]2F)c(=O)[nH]1; experiment: as above; format: biochemical, Mus musculus; conditions: 100 nM ssDNA primer FAM-18G, 10 mM Mg(OAc)2, 1x TdT buffer (100 mM KCl, 30 mM Tris-acetate, 0.05% Triton X-100), pH 7.5, 37°C
# Description: as §1
# [9] = substrate: CO[C@@H]1[C@H](O)[C@@H](COP(=O)(O)OP(=O)(O)OP(=O)(O)O)O[C@H]1n1ccc(N)nc1=O; experiment: purified protein, by the assay type
# Description: (§2) The steady-state kinetic experiments were performed as described previously with minor modifications ([61]). A 2× reaction solution was prepared by mixing 200 nM primer FAM-18G, 0–128 μM 2′-modified NTP and 20 mM Mg(OAc)2 in 2× TdT buffer. A 5 μl aliquot of pre-warmed 2× reaction solution was mixed with 5 μl of bovine TdT, MTdT-evo or murine TdT of varying concentration, and incubated at 37°C for a certain time. The reaction was then quenched by the addition of 10 μl of 2× TBE-urea sample buffer and incubation at 95°C for 10 min. The products were analysed with 20% denaturing PAGE gels containing 8 M urea. All gel bands were quantified using Quantity One analysis software (Bio-Rad). Km and kcat values were calculated by fitting the data to the Michaelis–Menten equation with GraphPad Prism 8 software. To quantify the activities of different TdTs for the incorporation of 2′-modified NTPs, steady-state kinetic experiments were carried out.
# [10] = substrate: Nc1ncnc2c1ncn2[C@@H]1O[C@H](COP(=O)(O)OP(=O)(O)OP(=O)(O)O)[C@@H](O)[C@@H]1F; experiment: purified protein, by the assay type
# Description: as §2
# [11] = substrate: Nc1ncnc2c1ncn2[C@@H]1O[C@H](COP(=O)(O)OP(=O)(O)OP(=O)(O)O)[C@@H](O)[C@H]1F; experiment: purified protein, by the assay type
# Description: as §2
# [12] = substrate: O=c1ccn([C@@H]2O[C@H](COP(=O)(O)OP(=O)(O)OP(=O)(O)O)[C@@H](O)[C@@H]2F)c(=O)[nH]1; experiment: purified protein, by the assay type
# Description: as §2
protein,measurement,setting,value
"murine TdT (Mus musculus) (protein, recombinant, plasmid pET28a-murine TdT, E. coli BL21(DE3)) MDPLQAVHLGPRKKRPRQLGTPVASTPYDIRFRDLVLFILEKKMGTTRRAFLMELARRKGFRVENELSDSVTHIVAENNSGSDVLEWLQLQNIKASSELELLDISWLIECMGAGKPVEMMGRHQLVVNRNSSPSPVPGSQNVPAPAVKKISQYACQRRTTLNNYNQLFTDALDILAENDELRENEGSCLAFMRASSVLKSLPFPITSMKDTEGIPCLGDKVKSIIEGIIEDGESSEAKAVLNDERYKSFKLFTSVFGVGLKTAEKWFRMGFRTLSKIQSDKSLRFTQMQKAGFLYYEDLVSCVNRPEAEAVSMLVKEAVVTFLPDALVTMTGGFRRGKMTGHDVDFLITSPEATEDEEQQLLHKVTDFWKQQGLLLYCDILESTFEKFKQPSRKVDALDHFQKCFLILKLDHGRVHSEKSGQQEGKGWKAIRVDLVMCPYDRRAFALLGWTGSRQFERDLRRYATHERKMMLDNHALYDRTKRVFLEAESEEEIFAHLGLDYIEPWERNA",Km,[1],1.97 ± 0.14 µM
same,kcat,[1],0.00217 ± 8.67e-05 s⁻¹
same,kcat/Km,[1],1100 M⁻¹ s⁻¹
same,Km,[2],1.00 ± 0.33 µM
same,kcat,[2],0.0198 ± 0.00183 s⁻¹
same,kcat/Km,[2],19800 M⁻¹ s⁻¹
same,Km,[3],1.66 ± 0.71 µM
same,kcat,[3],0.09 ± 0.00667 s⁻¹
same,kcat/Km,[3],54200 M⁻¹ s⁻¹
same,Km,[4],1.37 ± 0.18 µM
same,kcat,[4],0.058 ± 0.0055 s⁻¹
same,kcat/Km,[4],42300 M⁻¹ s⁻¹
same,Km,[5],2.75 ± 0.23 µM
same,kcat,[5],0.247 ± 0.007 s⁻¹
same,kcat/Km,[5],90000 M⁻¹ s⁻¹
same,Km,[6],2.59 ± 0.36 µM
same,kcat,[6],0.0892 ± 0.0055 s⁻¹
same,kcat/Km,[6],34500 M⁻¹ s⁻¹
same,Km,[7],2.53 ± 0.30 µM
same,kcat,[7],0.0307 ± 0.00118 s⁻¹
same,kcat/Km,[7],12100 M⁻¹ s⁻¹
same,Km,[8],0.95 ± 0.31 µM
same,kcat,[8],0.00617 ± 0.000567 s⁻¹
same,kcat/Km,[8],6480 M⁻¹ s⁻¹
same,Km,[9],5.1 ± 1.53 µM
same,kcat,[9],0.00112 ± 8.67e-05 s⁻¹
same,kcat/Km,[9],219 M⁻¹ s⁻¹
same,Km,[10],3.98 ± 0.33 µM
same,kcat,[10],0.204 ± 0.00283 s⁻¹
same,kcat/Km,[10],51300 M⁻¹ s⁻¹
same,Km,[11],0.62 ± 0.48 µM
same,kcat,[11],0.023 ± 0.00108 s⁻¹
same,kcat/Km,[11],37200 M⁻¹ s⁻¹
same,Km,[12],2.36 ± 0.60 µM
same,kcat,[12],0.06 ± 0.00433 s⁻¹
same,kcat/Km,[12],25500 M⁻¹ s⁻¹
